From patent publication US20210252150A1

How the values were obtained:
Assay in all cases: ELISA
[1] = biological target: HA of A/Solomon Islands/03/2006 (H1N1) (influenza A virus (H1N1))
[2] = biological target: HA of A/Texas/36/1991 (H1N1) (influenza A virus (H1N1))
[3] = biological target: HA of A/Texas/50/2012 (H3N2) (influenza A virus (H3N2))

Measured: EC50 fold over wild-type rFluA-20

B1: rFluA-20 heavy chain mutant Y100aA (antibody, V domains shown)
VH: QVQLQESGPGLVKPSETLSLTCSVSGVSVTSDIYYWTWIRQPPGKGLEWIGYIFYNGDTNYNPSLKSRVTMSIDTSKNEFSLRLTSVTAADTAVYFCARGTEDLGACSSGSCPNHWGQGTLVTVSS
VL: DIQMTQSPSSLSASIGDRVTITCRPSQNIRSFLNWFQHKPGKAPKLLIYAASNLQSGVPSRFSGSGSGTEFTLTIRSLQPEDFATYYCQQSYNTPPTFGQGTKVEIK
> 100 fold: all assays above
